Experiment: soluble on expression in E. coli; label from the status in PepcDB or PDB records

Sequence | soluble on expression in E. coli
MTYDYVIVGGGIVGVSTGWQLKRRYPEKSVLLIEKEAGFSRHQTGHNSGVIHAGVYYAPGSLKADFCKRGVERTLAFCAQHNIPVENCGKLLVATNEQELERMHALYDRCLQNQIDVEKLDAAQLKLAEPNIRGLGAILVKATSIVNYRLVTEKMAEAFMQLGGDVKIGTEVVGLEETPSSITLTCQQKNQRVSYQAKFLVTCSGLMADRLTKMLGLPTDFQIIPYRGEYYRLAPKHNQVVRHLIYPIPDPELPFLGVHLTRMIDGCVTVGPNAVQGFKREGYGKWNVSLRDVWEMVCFPGFWKVSAKHFKTGMVEMKNSWWKAGYLQLVRKYCPSIELTDLEPYPAGIRAQAVLSDGTLVHDFLFAESPRSLHVCNAPSPAATSAMPIGEYLCDKIAEKSLALEHHHHHH | soluble
MTYRIKKWQKLSTITLLMAGVITLNGGEFRSVDKHQIAVADTNVQTPDYEKLRNTWLDVNYGYDKYDENNPDMKKKFDATEKEATNLLKEMKTESGRKYLWSGAETLETNSSHMTRTYRNIEKIAEAMRNPKTTLNTDENKKKVKDALEWLHKNAYGKEPDKKVKELSENFTKTTGKNTNLNWWDYEIGTPKSLTNTLILLNDQFSNEEKKKFTAPIKTFAPDSDKILSSVGKAELAKGGNLVDISKVKLLECIIEEDKDMMKKSIDSFNKVFTYVQDSATGKERNGFYKDGSYIDHQDVPYTGAYGVVLLEGISQMMPMIKETPFNDKTQNDTTLKSWIDDGFMPLIYKGEMMDLSRGRAISRENETSHSASATVMKSLLRLSDAMDDSTKAKYKKIVKSSVESDSSYKQNDYLNSYSDIDKMKSLMTDNSISKNGLTQQLKIYNDMDRVTYHNKDLDFAFGLSMTSKNVARYESINGENLKGWHTGAGMSYLYNSDVKHYHDNFWVTADMKRLSGTTTLDNEILKDTDDKKSSKTFVGGTKVDDQHASIGMDFENQDKTLTAKKSYFILNDKIVFLGTGIKSTDSSKNPVTTIENRKANGYTLYTDDKQTTNSDNQENNSVFLESTDTKKNIGYHFLNKPKITVKKESHTGKWKEINKSQKDTQKTDEYYEVTQKHSNSDNKYGYVLYPGLSKDVFKTKKDEVTVVKQEDDFHVVKDNESVWAGVNYSNSTQTFDINNTKVEVKAKGMFILKKKDDNTYECSFYNPESTNSASDIESKISMTGYSITNKNTSTSNESGVHFELTK | not soluble
MVAASEGNVVIEVDMANGWRGNASGSTSHSGITYSADGVTFAALGDGVGAVFDIARPTTLEDAVIAMVVNVSAEFKASEANLQIFAQLKEDWSKGEWDCLAASSELTADTDLTLTCTIDEDDDKFNQTARDVQVGIQAKGTPAGTITIKSVTITLAQEAYSANVDHLRDLAPSDFPIGVAVSNTDSATYNLLTNSREQAVVKKHFNHLTAGNIMKMSYMQPTEGNFNFTNADAFVDWATENNMTVHGHALVWHSDYQVPNFMKNWAGSAEDFLAALDTHITTIVDHYEAKGNLVSWDVVNAAIDDNSPANFRTTDSAFYVKSGNSSVYIERAFQTARAADPAVILYYNDYNIEQNNAKTTKMVDMVKDFQARSIPIDGVGFQMHVCMNYPSIANISAAMKKVVDLGLLVKITELDVAVNQPHCDAYPANKINPLTEAAQLAQKKRYCDVVKAYLDTVPVNQRGGISVWGTTDANTWLDGLYREQFEDEKISWPLLFDNNYNDKPALRGFADALIGTQCTNTHELHHHHHH | soluble
MVADLMLCTNFFIFTGGPGSGKTAVLNELNTWGYLTVSEVARSIIQKQQADGGDAIHTGNRKAFRDLMLEQSIADYCKMQSEEKIVFFDRGIPDLYGYSKAFCGEASKEVNEAVGRFRYNKTVFIFPPWPEIYENDDERQQDYQEALQTYYAVKEGYFDCGYVLLEVPKCPIKDRANFIFQMISKNGLEHHHHHH | soluble
MVAGLTNGELIAPMTYEETMTSDFFEAWFQKFLLPTLTTPSVIIMDNARFHRMGKLELLCEEFGYKLLPLPPYSPEYNPIEKTWAHIKKHLKKVLPSCNTFYEALLSCSCFNLEHHHHHH | not soluble
MVCVSFPLFPEREADLCQRLVHLLDELRHHFVEIGHVLRIPLNDDVVNAFAFHARVVVCKEPCVFSGHPHAVLHLGHVRRLDGFETAKAEFHEVAGGERAFKLKAEPVTAQAVRGAGGAHALVTEQDRRLRDFHVSGELEEGAGVFFVLLAPGQRLGVNLWRYTGAYLGEQGVEVGHFHVCPFAARSRLGNDVVSVRGSNNSEP | not soluble
MVDQAQDTLRPNNRLSDMQATMEQTQAFENRVLERLNAGKTVRSFLITAVELLTEAVNLLVLQVFRKDDYAVKYAVEPLLDGDGPLGDLSVRLKLIYGLGVINRQEYEDAELLMALREELNHDGNEYAFTDDEILGPFGELHCVAALPPPPQFEPADSSLYAMQIQRYQQAVRSTMVLSLTELISKISLKKAFQK | soluble
MVEDILAPGLRVVFCGINPGLSSAGTGFPFAHPANRFWKVIYQAGFTDRQLKPQEAQHLLDYRCGVTKLVDRPTVQANEVSKQELHAGGRKLIEKIEDYQPQALAILGKQAYEQGFSQRGAQWGKQTLTIGSTQIWVLPNPSGLSRVSLEKLVEAYRELDQALVVRGR | soluble
MVEEMNNEVTEMKSFSVGDVVSGKVTKVEDKQAFVDVGFKVDGIIPISELSSLHVEKVSDVLSEGDELELKVLKVEDDELILSKRAVQAEKAWETLQAALDSGEVIEAEVADVVKGGLVVDLGVRGFIPASLVERHYVEDFSDYKGRTLRLKVVELDKEANKLILSQRAVLDEEVEAKKKEVLASLQPGDVVEGTVQRLTDFGAFVDVGGVDGLVHISQLAHHRVETPAEVVKEGDAVKVKVLSVDPDSERVSLSIKETLPGPWEQVEGTIQPGDVIEGTVKRLVSFGAFVEVAPGVEGLVHISQIANRHIGTPGEVLSEGERVQAKVLDVNISEKRISLSIRELLDDAGSNQSDREVYESTNEESSGFSLGDMIGDELKKYKLEHHHHHH | soluble
MVEKEKKDEEETRKITISVKGIRDDVYRNVSELARHTGKTIGEITNDAYRTFLGTVEGVRNVSQSFIEGAKGAIPRYIDNFKKLEITADDLKDLGQKVAFRNIDELTFKNITDEEFSKYVAFIDGVKVLKIPKTVKKTTVIKISTFVDEIIQE | not soluble
MVEVKPIIIDGHPFIAVSVQLPKTNLLAVAGEKGYIMCGALDVALLNEKLRDRGIIAGRAVGVRTIEQLLEAPLESVTVAALELGIEEGMKGREALLKMR | not soluble
MVFDPDFLNNNSEEHTNQLLNEHFGEHPNQLLKYLQHQSPEVLARVAQSVTPEIKQIISQNVQGLVGMLPAESFNVQITTDRDNLAGLLASAMMTGYFLRQMEQRMQLDHLSNQ | not soluble
MVFEGHLVGTGLKVGVVVGRFNEFITSKLLGGALDGLKRHGVEENDIDVAWVPGAFEIPLIAKKMANSGKYDAVITLGTVIRGATTHYDYVCNEVAKGVASLSLQTDIPVIFGVLTTETIEQAIERAGTKAGNKGYESAVAAIEMAHLSKHWA | not soluble
MVFGENALVLKHLGSNTKIHFNAFDALAGWKQEGLPPVEVPAAAQWKFRSKPSQQVILDYDYTFTTPYCGSEVVEKDKETVEAKANPKGEATLQWENCEDQIDLAALSLKEPILFYDEVVLYEDELADNGVSLLTVKVRVMPSSWFLLLRFWLRVDGVLMRLRETRMHYRFGEDEAPTVLRENCWREATFQSLSAKGYPVDLAVWSDPSSISQRLPVIKHTTQKLKIPSKV | not soluble
MVGGGLSTDIAGGRTMTCEFRNSRCISDDDDLIRMKEDDTETQKSEFHRKASGFFLRGSGYCRSIFRVSENLEKDWQACNRRAYMSGLVDYQSMARKAYEKLQELGISRHVTPLFAENVTVPIPGVVFLDCVVNDMTLISRIAGLVARAAFHIKNESPQHGLIEVGAPYNLVDNISYPGLIRFCGKVRNNLGNNYNIQCDIFQMCQFGARSLGSVHNTITVTVAAAAPIPNLVPRGILAPPPPPPPLPLPPVRRRAPKVLNLQKFIDAYQPVQSTGYPIGTPAAAAAVEKESAAPVVPENAEKEVAPKIAQKLELCGTPCKIKAEPEDEDIIILKHIAPNTDGGVKRVGSRNKIGKRSQKLKTRRL | not soluble
MVGWRIVRIATHPEVQGRGIGSWLLERLYEESVERGYDWLGSGFGINEQLLRFWLRNGFLVLHLSPD | not soluble
MVHYKLSYFPIRGAGEVIRQIFVYAGQSFEDHRISIEEWAAVKPTTPFGQLPLLEVDGKVLPQSHSIARFLARQFGINGKCAWEEAQVNSIADQFKDYRNEVRPYVMVKMGFAEGDLDALSKDVFLPGFKKHYGFIYNFLKTAGSGYLVGDSLTFVDLLIAQHTADILSTDPALLEEFPQFKAHQEKVHSNANIKKWLETRPETQF | not soluble
MVIRVFIASSSGFVAIKKKQQDVVRFLEANKIEFEEVDITMSEEQRQWMYKNVPPEKKPTQGNPLPPQIFNGDRYCGDYDSFFESKESNTVFSFLGLK | soluble
MVKAGKKVKGASKVRENETEEEKKIRLEMEALAADEAERKAQEAARVALRERQLREQRYAHLNGIKIHNQWRKIMRMAKVEELRREIEILSQNHEREVDRKDAIMQMLDRDLEEAEEQYSLAVRSHMLVVDNLLDLQYQRMRALEAEFAADLKALEDEFETERTEIVNAHTRQRKDMGDMIAAMEGEFADAEAELRQEYEAQREEIKNRNSEEYNVLKIQLEGIIEELEKSFELAHRAYLESTEHRTNTFRTLTKDDAKAALKIERQMRKLVRLQEALQHWRTKIATNGREWEERNRALRNEKEIMARHYAKLKSSMDAFRAGQAERLKQLSLASSGAMETLRGKLAVAENVLKLAELARKYETEQEKVLPFWNPAQAVPSGEQGDEEAAAQAEAEAAALEPSVAELGELGLRASMPEDSSKEAPGPSKSSAGPGKPKFSSYGLDPSSGSEVDEWDYLNCFFRRYNKALLDKTAIDKEKSRLERENADLRSILKQYLDGISVNDDVLNNPVNPLLVVNNRLQITLTERNKARAAAMAQRAAAATGAGLSVTGQGAGGGGQKQLVEVQVVSRVS | not soluble
MVKATAIDMSLSDIISTNRKNKKVVKKPIKKSAGGIRKRGNASNVGTPRRQSGGTSRGGGRMGNTVRRSAGGSSNDNKQVRINISNLAETVISSDLQELFGAFNLHKVSVNFNENGGAAGTGDITLKKYDADRLIQKFAGVALDGKVMHFAVIESSNFARKPEIRGTPNRRQSSGKPINRKVANPPRRQNAAKPPVKKGKKPAREQKPPKTAEQLDAELDAYMSRSA | not soluble
MVKETEYYDILGIKPEATPTEIKKAYRRKAMETHPDKHPDDPDAQAKFQAVGEAYQVLSDPGLRSKYDQFGKEDAVPQQGFEDASEYFT | not soluble
MVKIHPDLTTSGAGEETSSPYLTTEQESFTIWMKSLVFNTNGCTVFDSKGNIIYRVDNYNSKSCREVYLMDLSGHVLFTLRRQKFGLFKTWEGYRSSSATVESTTKLEYFRVKNNVFQVPNKDSSSSYRVNAGSCRNDEQYCYKMVTRGSSLAIEDNCGKLLAEVKRKQSINGLKLGDDVLTMMVESQVDHSFIIGLVLAHSLINCIL | soluble
MVKKVKGRRYEGSIEQRSKNSWRMRVTVGYDYKGTPIRADRTTRTKNERERERELRNFITELEQNGYTAPARMTFKAFVENEYMPKHAQNNLEVKTWTEYYKSIVARAYPAFGGVQMDKITTLHIVNLVAKLQKPGARLDVKPTDSDEKKNKPLSPRSIRNIYFAINSVFETAVEWKVIPINPAEGVRLPKTTKRPPTIYTPAEIELLNAALVKEPLRLQVMIYIALISGCREAELAALEVKHVNLIEDELTFEQTLVAKAGEGLLLKESTKNDVAGIVSIPAWLTNLIETYISNEVLDLKTEGKWANHKFLFADMEGKPIRPDSIYQRWKRFLERHNLPVIRFHDLRHTSATLLLNKGRDIKIIQERLRHKSSVTTSNIYAHVLKDTHKDAASDFENPF | not soluble

From the DeepSol protein solubility set
